Source: the supplement of paper PMC12764529
± gives the half width of the 95% confidence interval.

Tests used:
[1] = folding stability dG unfold from chymotrypsin proteolysis; higher = more stable
Procedure, shortened: (§1)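 How resistant each design was to proteolysis was captured as K50, inferred by Bayesian fitting of sequencing counts. Unfolding free energy was then derived relative to a sequence-predicted unfolded-state K50 and a shared folded-state K50, per protease or combined. Digestion used trypsin and chymotrypsin at 11 threefold-diluted concentrations plus a no-protease condition, on mini-proteins under 80 residues without cysteine in a PA-tagged cDNA display construct. Designs were kept only when AlphaFold2 dimer inter-PAE was above 15.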

[2] = folding stability dG unfold from trypsin proteolysis; higher = more stable
Procedure, shortened: as §1

[3] = folding stability dG unfold (combined trypsin and chymotrypsin); higher = more stable
Procedure, shortened: as §1

Sequence | folding stability dG unfold [1] | folding stability dG unfold [2] | folding stability dG unfold [3]
SAGGSKTVTLTVTVEVNGKTFTVTVTLTYDEETNKLTITVEISAKSEEERERARELVEKLLKELLSSAGGSA [r2_259_TrROS_Hall] | 4.95 ± 0.094 kcal/mol | 3.83 ± 0.12 kcal/mol | 4.79 ± 0.13 kcal/mol
SAGGATIELEAEEHPETKKITIYVKSENPILTIEKIAKELKEKEDDIELTLVNEDGVPYTIKLEDLISAGGS [r8_236_TrMRF] | 0.38 ± 0.2 kcal/mol | -0.957 ± 0.47 kcal/mol | 0.217 ± 0.3 kcal/mol
GFEVTAEIEVYEDPESGAKVVKVTIPVKNGDPEVLEKAAKELAKKLFGPGAKFDPKIDPETGRVEVTGVLAS [r1_273_TrMRF] | 1.57 ± 0.07 kcal/mol | 0.942 ± 0.046 kcal/mol | 1.38 ± 0.13 kcal/mol
SAGGGSTVTTFDPSTGKTTVSIGTDPATGERTVTIVLKNGTPVTVPGPFPSVEEAEAAAAAAAAAAASAGGS [r16_319_JUSTAS] | 0.824 ± 0.041 kcal/mol | 0.762 ± 0.043 kcal/mol | 0.818 ± 0.097 kcal/mol
SAGGSAMMLAKVKIELPNGEIVEIPIEFESLEELEEKIKEKARELFPDIPIEDIKILDIELYSLEESAGGSA [r15_220_TrMRF] | 5.32 ± 0.13 kcal/mol | 4.06 ± 0.27 kcal/mol | 5.31 ± 0.34 kcal/mol
SAGKPLPKLKTYEVDVPDNKKVKIEVYKLPDGTAIVKIKDDNGNESEIEIPLSLLENLSVEDLVKLAKSAGG [r19_47_TrMRF] | 2.28 ± 0.047 kcal/mol | 0.77 ± 0.028 kcal/mol | 1.9 ± 0.095 kcal/mol
SAGGSAGGSKGVKELVIVVPPDKPEKIEEFLKKLRDEYAKDIKVLEVKETPDGGYIAKIKITDSAGGSAGGS [r12_91_TrMRF] | 1.96 ± 0.071 kcal/mol | 1.4 ± 0.041 kcal/mol | 1.85 ± 0.12 kcal/mol
SAGGSAGGSAMKVRVKIKITRGSKEYEEEFILPEEEIEKLKEEIPEDYEVEIVDKEPLVLKSAGGSAGGSAG [r3_195_JUSTAS] | 0.771 ± 0.16 kcal/mol | 0.129 ± 0.16 kcal/mol | 0.46 ± 0.27 kcal/mol
SAGGSGSQEVDIDFKFPPNFNMDELAKKIEELPGIDIKPDRYDPENGTYKITINVNDPQAVREIIRSAGGSA [r2_305_TrROS] | -0.497 ± 0.69 kcal/mol | 0.0473 ± 0.16 kcal/mol | -0.483 ± 0.5 kcal/mol
SAGGSAGGSAKKYVLLVTYRHPENGETRTVLVEVETEEEVERAVKELAPPEFDEVKVYVLPASAGGSAGGSA [r18_258_TrMRF] | 2.79 ± 0.046 kcal/mol | 2.83 ± 0.15 kcal/mol | 2.83 ± 0.12 kcal/mol
SAGGSAGGSWIILIHWPNGKEIPIFFKSPEEANEIAEEIKKIFQEKGMEPVSVEIYPIKPGQMSAGGSAGGS [r12_301_TrROS] | 2.26 ± 0.071 kcal/mol | 2.47 ± 0.086 kcal/mol | 2.32 ± 0.21 kcal/mol
SAGGSAGGSASVTTTTTPLPGDRTLTTTTYPDGTVKVTTYTVDTATGTVTSTSTTLSPATLTSAGGSAGGSA [r18_325_JUSTAS] | 0.254 ± 0.12 kcal/mol | 1.15 ± 0.042 kcal/mol | 0.856 ± 0.082 kcal/mol
SAGGSAGGSAGGNGKKEITIFIKVPPGMPPNEIKDELKDLGLTNIEIERHNNWVMITFRSAGGSAGGSAGGS [r10_868_TrROS] | 1.84 ± 0.099 kcal/mol | 1.15 ± 0.06 kcal/mol | 1.58 ± 0.12 kcal/mol
SAKTIKIEIEVKPEKLEEVLEEIAKALAEKLGLPEDVKEIKIEVTKIEVEKVKVDGKEYVKVKIEIKVESAG [r14_736_TrROS_Hall] | 3.97 ± 0.28 kcal/mol | 3.04 ± 0.19 kcal/mol | 3.59 ± 0.32 kcal/mol
SAGGSAALVLSREEFDGEVLLTLRDPETGEELLARLTYVPEENLVRLETTFPDGSTTTSVLPASALSAGGSA [r15_1055_JUSTAS] | 1.59 ± 0.059 kcal/mol | 1.794 ± 0.017 kcal/mol | 1.75 ± 0.033 kcal/mol
SAGSMVLTEDKEFEVDYVLPDGTRLTEPVKVKVKTTTVFLKNNSSLVLTFTTVTLTDPKGNKVTFSGSVSAG [r5_257_JUSTAS] | 2.969 ± 0.018 kcal/mol | 2.31 ± 0.074 kcal/mol | 2.7 ± 0.1 kcal/mol

Sequence | folding stability dG unfold [1] | folding stability dG unfold [2] | folding stability dG unfold [3]
SAGGLIEKLKELGFEIVSVEEREETLPNGKKVRTVKITVKLPNGELVKIEVRVLPNGEVIIKIEVKKPSAGG [r13_818_TrROS_Hall] | 3.17 ± 0.89 kcal/mol | 3.72 ± 0.15 kcal/mol | 3.55 ± 0.27 kcal/mol
SAGGMPREVAKEMIENDKDAKVTFTIYRFPDGPVPSVTVEVIEADVKDPDAFLESVPEGWLVLVEPASAGGS [r16_116_TrMRF] | 1.17 ± 0.11 kcal/mol | 0.245 ± 0.13 kcal/mol | 0.769 ± 0.085 kcal/mol
SAGGKTVTIKAKSLEDALKAIEALPSVDKVTITVEVNGKTVTITLTVKPPPPVKYELDKNGKLVKKEKSAGG [r13_183_TrROS_Hall] | 1.56 ± 0.086 kcal/mol | 0.794 ± 0.05 kcal/mol | 1.28 ± 0.25 kcal/mol
SAGGSAGGSAGGKKVILIRGLTPEEIEALAKELEELFPDLKVTIERLPGEEGTLLITVDSAGGSAGGSAGGS [r10_852_TrROS_Hall] | 1.91 ± 0.1 kcal/mol | 2.92 ± 0.17 kcal/mol | 2.38 ± 0.14 kcal/mol
SAGGSAGGSAGGKKIRIVVPKENLEKIEELAKKLGPDVKIVKVEYFKETDYVVVEVEVKSAGGSAGGSAGGS [r10_23_TrROS_Hall] | 1.98 ± 0.075 kcal/mol | 2.16 ± 0.06 kcal/mol | 2.11 ± 0.086 kcal/mol
SAGMTTTVTLKAPDGTTATVTIPPDGNAVMTIETPEGTSTRTVPVPADVSIEEILKEYPNYTIVSREAASAG [r5_259_JUSTAS] | 2.05 ± 0.021 kcal/mol | 1.26 ± 0.037 kcal/mol | 1.82 ± 0.041 kcal/mol
SMKPGAEITIEPFPDGMYKITLPDGRERIFSPNGIAIEITPNKIKIEMFHPGKPIMEMEVEIPPPDPNDPSA [r9_901_TrROS] | 0.771 ± 0.16 kcal/mol | 0.912 ± 0.19 kcal/mol | 0.987 ± 0.43 kcal/mol
SAGGPEELELTLSIDYPDLTPEQAAEEARRLLEGLGFEVKEIPVTVEPGPGKVTVRARVTVLPPEERSAGGS [r16_287_TrMRF] | 1.21 ± 0.05 kcal/mol | 0.859 ± 0.12 kcal/mol | 1.06 ± 0.17 kcal/mol
SAGGSMTISYDPSTGTVTITDPTVPLNTPRSITITFPGGETFTATLTPLPDNSATATYTVVPTAGASAGGSA [r2_89_JUSTAS] | 1.09 ± 0.1 kcal/mol | 1.26 ± 0.036 kcal/mol | 1.23 ± 0.16 kcal/mol
SAGGSAGGSMPPLAPDETVTQTLPSPDGSEVLVTYTWVPGEGLVETKVTDPATGKTTSTKTPVPSAGGSAGG [r6_440_JUSTAS] | -0.521 ± 0.31 kcal/mol | 0.0545 ± 0.067 kcal/mol | -0.0833 ± 0.16 kcal/mol
SAGATFKPGQTVTVVEVKVEVSVSLSRNADGSVSLSVSVRVEVKTTTVTLPEPATVTLPPGVKSLEDLLSAG [r5_770_TrROS_Hall] | 3.73 ± 0.096 kcal/mol | 2.37 ± 0.097 kcal/mol | 3.27 ± 0.089 kcal/mol
SAGGSAGGSAGYTVSVSVETETLKYLDPETGELVEEETLVRVTITITPPPPAPPNLPENLSAGGSAGGSAGG [r17_493_TrROS_Hall] | 2.76 ± 0.051 kcal/mol | 2.37 ± 0.23 kcal/mol | 2.65 ± 0.23 kcal/mol
MVAVFEFTFKSEEELLEAAEEVARRLAAELGLPEEELEKIPIEVEVEEIGNEDGEKEYKLTIRFGFPEEFLS [r1_81_TrMRF] | 3.92 ± 0.05 kcal/mol | 3.51 ± 0.13 kcal/mol | 3.83 ± 0.13 kcal/mol
SAGGSASMTIVPVKSEEELEAYIKTKNPKVFLLPLPDGTELVVKVNVDDPSKIEKVSLSKPEEILLSAGGSA [r15_11_JUSTAS] | 0.664 ± 0.16 kcal/mol | 0.228 ± 0.12 kcal/mol | 0.622 ± 0.25 kcal/mol
SAGGKYVMFPFDSPEDLKDLLPPGYPVEIHMMPPKGKHRTRTFTPDEIKLELPPGENFYFMIKVKPPDSAGG [r13_461_TrROS] | 1.94 ± 0.33 kcal/mol | 1.55 ± 0.16 kcal/mol | 1.74 ± 0.2 kcal/mol
